Laboratory results reported in patent US20240101687A1 (ABL BIO, published 2024).
Where a chain is given by its changes, count along the chain named. Values belong to the binder of their own block, whether it stands above or below them.

Columns and labels:
[1] = target: T1, human IGF1R extracellular domain, His-tagged (human, UniProt P08069 31-932); assay: ELISA, hIGF1R coated, minibody titrated 0.000256-20 nM, Abs. at 450 nm
T1 construct: Bought (R&D Systems 391-GR or Sino Biological 10164-H08H); also called recombinant IGF1R; ECD of IGF1R
Experimental: Human IGF1R was diluted with 1 ug/ml in PBS buffer, added at an amount of 100 ul per well in 96-well ELISA plate (Nunc-Immuno Plates, NUNC, Rochester, NY), coated by reacting at 4° C. for 16 hours, and then the supernatant was removed. PBS buffer containing 3% BSA (bovine serum albumin) was added to 200 ul per well and reacted for 2 hours to block non-specific binding.
After treatment, it was wash 4 times with PBS buffer containing 0.05% Tween20, and was reacted at room temperature for an hour by adding 100 ul of the anti-human HRP recognizing human Fe of the minibody diluted in blocking buffer at 1:5000 per each well. After washing 4 times with 300 ul of PBS-T (Tween20 0.05%), the color development was performed using TMB (Tetramethylbenzidine, Sigma, T0440).

[2] = target: T2, human alpha-synuclein aggregates (fibrils) (human, UniProt P37840 1-140); assay: ELISA, alpha-synuclein aggregates coated at 1 ug/ml, antibody titrated 5-fold from 400 nM, anti-human Fc-HRP; C of the 4-P fit
Experimental: (§1) The alpha-synuclein aggregates were coated on a 96-well plate at a concentration of 1 ug/ml for 18 hours, and after washing, was treated with each antibody by diluting by 5 times from 400 nM. The bound antibodies were bound to anti-human Fc-HRP and then performed by color development with TMB solution, to measure the degree of binding of the antibody.

[3] = target: T3, mouse IGF1R on bEND.3 brain endothelial cells (mouse, UniProt Q60751 31-1373); assay: FACS on bEND.3 mouse brain endothelial cells
T3 construct: whole, on cells; also called IGF1R expressed on the surface of brain endothelial cells
T3 sequence (Q60751 31-1373): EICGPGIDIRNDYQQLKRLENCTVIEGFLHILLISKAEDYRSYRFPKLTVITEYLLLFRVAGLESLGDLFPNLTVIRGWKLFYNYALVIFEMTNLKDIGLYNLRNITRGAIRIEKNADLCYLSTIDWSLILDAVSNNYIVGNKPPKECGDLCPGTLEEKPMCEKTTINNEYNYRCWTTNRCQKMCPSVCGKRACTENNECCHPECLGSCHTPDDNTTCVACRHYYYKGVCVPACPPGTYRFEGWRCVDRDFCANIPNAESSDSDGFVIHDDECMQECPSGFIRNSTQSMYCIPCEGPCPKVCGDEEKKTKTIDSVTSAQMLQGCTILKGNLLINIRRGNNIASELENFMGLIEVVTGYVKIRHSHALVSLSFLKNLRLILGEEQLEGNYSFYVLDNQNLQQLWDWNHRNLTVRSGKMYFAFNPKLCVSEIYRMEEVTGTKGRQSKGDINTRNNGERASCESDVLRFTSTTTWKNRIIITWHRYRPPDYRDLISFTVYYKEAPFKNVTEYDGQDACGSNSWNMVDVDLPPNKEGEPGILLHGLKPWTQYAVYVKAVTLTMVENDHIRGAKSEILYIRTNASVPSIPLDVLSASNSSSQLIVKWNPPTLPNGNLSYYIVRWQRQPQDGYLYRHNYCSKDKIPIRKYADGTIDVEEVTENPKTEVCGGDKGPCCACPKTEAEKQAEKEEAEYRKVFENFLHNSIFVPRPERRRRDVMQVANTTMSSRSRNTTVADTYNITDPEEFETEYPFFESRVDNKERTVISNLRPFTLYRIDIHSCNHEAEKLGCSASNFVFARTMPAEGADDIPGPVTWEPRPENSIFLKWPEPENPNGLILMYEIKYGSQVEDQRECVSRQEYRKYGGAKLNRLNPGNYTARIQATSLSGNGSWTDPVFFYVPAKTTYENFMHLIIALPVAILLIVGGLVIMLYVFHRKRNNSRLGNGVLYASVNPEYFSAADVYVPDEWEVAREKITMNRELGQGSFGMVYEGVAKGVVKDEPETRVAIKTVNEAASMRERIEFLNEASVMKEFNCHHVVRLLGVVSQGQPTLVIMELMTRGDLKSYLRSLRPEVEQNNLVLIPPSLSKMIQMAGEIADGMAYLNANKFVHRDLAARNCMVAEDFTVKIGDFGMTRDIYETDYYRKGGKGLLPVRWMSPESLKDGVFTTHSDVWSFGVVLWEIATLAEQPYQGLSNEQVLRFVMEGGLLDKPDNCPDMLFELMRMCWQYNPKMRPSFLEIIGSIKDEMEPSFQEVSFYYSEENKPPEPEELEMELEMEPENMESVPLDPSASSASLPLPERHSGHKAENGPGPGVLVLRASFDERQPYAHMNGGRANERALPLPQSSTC

[4] = target: T1, human IGF1R extracellular domain, …; assay: ELISA on coated IGF1R, antibody titrated up to 400 nM; C of the 4-P fit, D 2.68; curve at baseline up to about 3 nM, about 0.8 at 80 nM and 1.75 at 400 nM, no plateau in the data; the text says the single antibody did not bind
[5] = target: T2, human alpha-synuclein aggregates …; assay: ELISA, alpha-synuclein aggregates coated, antibody titrated up to 400 nM; C of the 4-P fit
Experimental: as §1

[6] = target: T2, human alpha-synuclein aggregates …; assay: BIAcore as in Example 4-3, α-syn aggregates
Experimental: (§2) The running buffer, analyte dilution, and the sample dilution buffer were HBS-EP. […] For the capture, the monomer was for RU of 800 (theoretical), and a fibril was for RU of 100 (theoretical). The capture phase was performed at contact time of 60 seconds, a flow rate of 30 μl/min, and a stabilization period of 180 seconds. The association phase was performed at the association time of 120 seconds and the flow rate was 30 μl/min. The dissociation phase was performed at the dissociation time of 360 seconds and the flow rate of 30 l/min. The regeneration phase was performed twice time at the regeneration time of 240 seconds (primary) and 60 seconds (secondary) and a flow rate of 30 μl/min. The fitting was carried out suing 1:1 binding model, and the evaluation software was BIACore T200 Evaluation software (GE healthcare).

[7] = target: T2, human alpha-synuclein aggregates …; assay: sandwich ELISA, antibody coated 0.04-400 nM, fibril aggregates 2000 ng/ml
Experimental: (§3) Specifically, each antibody was diluted at 1/10 ratio of concentrations 0.04 to 400 nM and was coated on a 96-well plate, and then each well was treated with synuclein fibril aggregates were treated at 2000 ng/ml. After washing with 1×PBS, streptavidin conjugated with HRP and secondary antibody conjugate with biotin was treated and then reacted with TMB as a substrate. The absorbance was measured.

[8] = target: T2, human alpha-synuclein aggregates …; assay: SPR (BIAcore), antibody captured on Protein A chip, alpha-synuclein fibril (sample aSyn180330) as analyte, 1:1 binding fit, 25 C
Experimental: as §2

human gamma-synuclein = target: T4, human gamma-synuclein (human, UniProt O76070 1-127, limits assumed); assay: ELISA, human gamma-synuclein coated at 100 ng/ml
T4 construct: bought
T4 sequence (O76070 whole entry): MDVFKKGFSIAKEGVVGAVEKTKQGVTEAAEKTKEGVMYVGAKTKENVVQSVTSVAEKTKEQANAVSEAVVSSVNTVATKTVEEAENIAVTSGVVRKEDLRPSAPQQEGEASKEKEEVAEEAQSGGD
Text: (§4) For the positive control, RP-bound goat anti-rabbit was used as a detection antibody.

[9] = target: T2, human alpha-synuclein aggregates …; assay: SPR (BIAcore), antibody captured on Protein A chip, alpha-Syn fibril as analyte, 1:1 binding fit, 25 C
human beta-synuclein = target: T5, human beta-synuclein (human, UniProt Q16143 1-134, limits assumed); assay: ELISA, human beta-synuclein coated at 100 ng/ml
T5 construct: bought
T5 sequence (Q16143 whole entry): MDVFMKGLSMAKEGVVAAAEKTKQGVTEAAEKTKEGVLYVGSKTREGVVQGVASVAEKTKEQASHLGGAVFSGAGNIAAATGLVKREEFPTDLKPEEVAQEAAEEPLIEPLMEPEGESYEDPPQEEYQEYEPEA
Text: as §4

[10] = target: T1, human IGF1R extracellular domain, …; assay: ELISA on coated IGF1R, antibody titrated up to 400 nM; C of the 4-P fit, D 0.945; curve at baseline up to 16 nM, about 0.2 at 80 nM and 0.75 at 400 nM, no plateau in the data; the text says the single antibody did not bind
[11] = target: T3, mouse IGF1R on bEND.3 brain endothelial …; assay: FACS on bEND.3 mouse brain endothelial cells; MFI of secondary Ab only 3.20
Tau protein aggregates = target: T6, Tau protein aggregates (UniProt P10636-8 1-441, limits assumed); assay: dot blot
T6 construct: aggregates prepared by Prof; Seung-jae Lee; also called tau-derived aggregates
T6 sequence (P10636 other isoform, or with tags, fused parts or gaps limits assumed): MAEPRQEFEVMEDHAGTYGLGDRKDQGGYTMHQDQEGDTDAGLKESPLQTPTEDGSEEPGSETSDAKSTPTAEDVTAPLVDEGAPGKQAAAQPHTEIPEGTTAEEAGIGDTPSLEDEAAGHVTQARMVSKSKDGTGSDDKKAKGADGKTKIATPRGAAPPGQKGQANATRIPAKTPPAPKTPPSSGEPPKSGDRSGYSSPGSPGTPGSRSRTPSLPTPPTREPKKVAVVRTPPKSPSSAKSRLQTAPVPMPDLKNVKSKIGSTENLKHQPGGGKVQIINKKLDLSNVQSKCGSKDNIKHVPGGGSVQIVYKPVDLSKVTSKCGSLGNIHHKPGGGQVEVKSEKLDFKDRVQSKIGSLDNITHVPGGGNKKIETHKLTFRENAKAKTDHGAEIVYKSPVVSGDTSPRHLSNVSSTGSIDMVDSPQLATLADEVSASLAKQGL

[12] = target: T7, amyloid beta1-42 aggregates (UniProt P05067 672-713); assay: dot blot, monomer and fibril of each protein spotted in rising amounts, antibody as probe
T7 construct: domain: amyloid beta1-42; aggregates prepared by Prof; Seung-jae Lee; also called amyloid beta1-42-derived aggregates
Experimental: (§5) The specific binding ability of the antibodies to the alpha-synuclein aggregate was analyzed by reacting with a blot.

Aβ42 (Monomer) = target: T8, Aβ42 (Monomer) (human, UniProt P05067); assay: as above
T8 construct: recombinant, monomer (not aggregated); m20 is the aggregated form; also called amyloid beta1-42 monomer
Experimental: as §5

human IGF1R on cells = target: T9, human IGF1R on cells (human, UniProt P08069 31-1367); assay: FACS on MCF-7 cells, 10 ug/mL (2nd Ab only: 2.86)
T9 construct: also called endogenous IGF1R on the cell surface (MCF-7, JIMT-1, BT474, SKBR3); IGF1R library on OVCAR3 cells
Experimental: After washing with PBS buffer containing 1% BSA, the secondary antibody bound with FITC to detect human antibodies was treated for 1 hour.

[13] = target: T2, human alpha-synuclein aggregates …; assay: sandwich ELISA, antibody coated in a dilution series, synuclein fibril aggregates at 2000 ng/ml; C of the 4-P fit, which paragraph 260 calls EC50
Experimental: as §3

[14] = target: T1, human IGF1R extracellular domain, …; assay: SPR (Biacore T200), His-tagged human IGF1R ECD captured by anti-His antibody on CM4 chip, bivalent model; 1564 IgG
Experimental: (§6) The anti-his antibody against the His tag bound to the human IGF1R ECD as an antigen was diluted to 20 μg/ml in acetate pH4.0 buffer, and then immobilized in the reference/analytic channel of the CM4 chip to 10,000 RU as a target RU according to the amine coupling method. During capture, PBS was used as a running buffer, and the flow rate was maintained at 30 μL/min. During association/dissociation, the flow rate was 40 μL/min, and PBS was used as the running buffer. The association/dissociation was 5 minutes and 20 minutes, respectively.

[15] = target: T1, human IGF1R extracellular domain, …; assay: SPR (Biacore), human IGF1R ECD-His captured by anti-His antibody on CM4 chip, 1564-IgG as analyte, bivalent analyte fit, 25 C; lower panel
Experimental: as §6

[16] = target: T1, human IGF1R extracellular domain, …; assay: SPR (Biacore), human IGF1R ECD-His captured by anti-His antibody on CM4 chip, 1564-IgG as analyte, bivalent analyte fit, 25 C; upper panel
Experimental: as §6

[17] = target: T1, human IGF1R extracellular domain, …; assay: ELISA, IGF1R coated, anti-human Fab-HRP
Experimental: To this end, firstly, human, monkey, mouse and rat IGF1R antigens were diluted to 1 ug/ml, added to each well 100 ul, and reacted at 4° C. for 15 hours to be coated on the bottom of the plate. After removing the supernatant, 200 ul of PBS buffer containing 3% BSA was treated in each well to block non-specific binding. The anti-IGF1R antibodies were diluted by 5 times in PBSB (BSA 3% in PBS) at a maximum concentration of 400 nM, treated in each well, and reacted at 37° C. for 1 hour. Then, after washing with PBS buffer 5 times, the anti-human Fab HRP recognizing the Fab portion of the bound antibody was diluted 1:20000 was treated at 100 ul of each well, and reacted at 37° C. for 1 hour. The product was washed 5 times with PBS buffer and the color development was performed with TMB (Tetramethylbenzidine, Sigma, T0440) according to the manufacturer's method. […] When many samples are used in the ELISA analysis, the plates were divided into two.

[18] = target: T1, human IGF1R extracellular domain, …; assay: SPR (Biacore T200), His-tagged human IGF1R ECD captured by anti-His antibody on CM4 chip, bivalent model; F06 IgG
Experimental: as §6

B1: 996 minibody (Fc fusion, not shown: a dimerising Fc or GST)
chain: QSVLTQPPSASGTPGQRVTISCTGSSSNIGSNAVNWYQQLPGTAPKLLIYSNSHRPSGVPDRFSGSKSGTSASLAISGLRSEDEADYYCATWDYSLSGYVFGCGTKLTVLGGGGSGGGGSGGGGSGGGGSEVQLLESGGGLVQTGGSLRLSCAASGFTFSSYDMSWVRQAPGKCLEWVSGIYHDGSSTYYADSVQGRFTISRDNSKNTLYLQMNSLRAEDTAVYYCARVSGTLSEPYAFFFNAMDVWGQGTLVTVSS
- EC50 (read off the curve) [1]: ~0.3 nM

B4: 1564 IgG (antibody, V domains shown)
VH: EVQLLESGGGLVQPGGSLRLSCAASGFTFSSYDMSWVRQAPGKGLEWVSAISYDNGNTYYADSVKGRFTISRDNSKNTLYLQMNSLRAEDTAVYYCAKGVLTTLMNWFDYWGQGTLVTVSS
VL: QSVLTQPPSASGTPGQRVTISCTGSSSNIGSNDVSWYQQLPGTAPKLLIYANSNRPSGVSDRFSGSKSGTSASLAISGLRSEDEADYYCGAWDDSLNGYVFGGGTKLTVLR
- Kd [14]: 2.53 nM
- koff [15]: 2.53e-06 s⁻¹
- koff [16]: 2.41e-06 s⁻¹
- kon [16]: 902 M⁻¹ s⁻¹
- EC50 [17]: 0.0823 nM
- MFI [11]: 7.55

B5: F06 IgG antibody (antibody, V domains shown)
VH: B4 VH
VL: QSVLTQPPSASGTPGQRVTISCTGSSSNIGSNDVSWYQQLPGTAPKLLIYANSNRPSGVPDRFSGSKSGTSASLAISGLRSEDEADYYCGTWAGSLNGYVFGGGTKLTVL
- Kd [18]: 478 nM

Continued, values first:

- EC50 [2]: 33.8 nM
- binding result [3]: no binding
- EC50 [4]: 201 nM
- EC50 [5]: 1.27 nM
- Kd [6]: 0.0247 nM
- EC50 [7]: 12.5 nM
- koff [8]: 0.000563 s⁻¹
- kon [8]: 609000 M⁻¹ s⁻¹
- binding result (human gamma-synuclein): no binding
- koff [9]: 8.88e-05 s⁻¹
- kon [9]: 193000 M⁻¹ s⁻¹
- binding result (human beta-synuclein): no binding
- EC50 [10]: 196 nM
- MFI [11]: 3.26
- binding result (Tau protein aggregates): no binding
- binding result [12]: no binding
- binding result (Aβ42 (Monomer)): no binding
B2: chimeric 11F11 antibody (antibody, V domains shown)
VH: EVQLQESGGGLVQPGGSLRLSCATSGFTFSDFYMEWVRQPPGKRLEWIAASRNKANDYTTEYSASVKGRFIVSRDTSQSILYLQMNALRAEDTAIYYCARDAHGKPFAYWGQGTLVTVSA
VL: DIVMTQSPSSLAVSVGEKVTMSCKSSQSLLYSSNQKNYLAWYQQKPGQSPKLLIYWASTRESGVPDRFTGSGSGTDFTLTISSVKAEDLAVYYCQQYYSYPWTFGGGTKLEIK
notes: also called Ch11F11; ch11F11

- Kd [6]: 0.0596 nM
- koff [8]: 0.000173 s⁻¹
- kon [8]: 1.19e+06 M⁻¹ s⁻¹
- GeoMean, Internalization at 37° C. (human IGF1R on cells): 3.18
- EC50 [13]: 15.1 nM
B3: hu11F11(ver.2) (antibody, human IgG1, kappa, V domains shown)
VH: B2 VH with Q5V, I71T, T76D, Q78K, I80S, A87S, L115T, A120S
VL: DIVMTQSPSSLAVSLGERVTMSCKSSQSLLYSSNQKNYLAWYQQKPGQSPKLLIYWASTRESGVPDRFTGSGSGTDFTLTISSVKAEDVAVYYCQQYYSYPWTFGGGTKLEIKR
notes: humanized IgG1; also called Hu11F11-VH-v2 + Hu11F11-VLv3 4c
